Data on eleven molecules can be found in article PMC5645467, “Three-dimensional context rather than NLS amino acid sequence determines importin α subtype specificity for RCC1” (Nature Communications, 2017).

Changes are numbered by the printed parent chain. Numbers in names are those of the source.

B1: ΔIBB-importin α3 (as used for ITC) (domain or fragment)
chain: not shown
modifications: Limits not given; taken from the ΔIBB-importin α3 entity of PDB 4UAE (Met + 420 residues, starting VQNTS), which fits the expected complex MW of ~91.2 kDa. A construct running to 521 is possible.
B2: yRCC1 (yeast RCC1, cleaved from GST, in the purified Kap60:yRCC1 complex) (natural protein, Saccharomyces cerevisiae (strain S288C))
chain: MVKRTVATNGDASGAHRAKKMSKTHASHIINAQEDYKHMYLSVQPLDIFCWGTGSMCELGLGPLAKNKEVKRPRLNPFLPRDEAKIISFAVGGMHTLALDEESNVWSWGCNDVGALGRDTSNAKEQLKDMDADDSSDDEDGDLNELESTPAKIPRESFPPLAEGHKVVQLAATDNMSCALFSNGEVYAWGTFRCNEGILGFYQDKIKIQKTPWKVPTFSKYNIVQLAPGKDHILFLDEEGMVFAWGNGQQNQLGRKVMERFRLKTLDPRPFGLRHVKYIASGENHCFALTKDNKLVSWGLNQFGQCGVSEDVEDGALVTKPKRLALPDNVVIRSIAAGEHHSLILSQDGDLYSCGRLDMFEVGIPKDNLPEYTYKDVHGKARAVPLPTKLNNVPKFKSVAAGSHHSVAVAQNGIAYSWGFGETYAVGLGPFEDDTEVPTRIKNTATQDHNIILVGCGGQFSVSGGVKLSDEDAEKRADEMDD
notes: Saccharomyces cerevisiae RCC1 homolog Prp20p, amplified from a genomic library of strain S288C; also called Prp20p; source: E. coli BL21-AI, co-expressed with ΔIBB-Kap60, cleaved off glutathione beads with PreScission Protease, SEC; not shown: GST, N-terminal, cleaved
B3: Δ10-RCC1 (domain or fragment, human, UniProt P18754 11-421, looked up)
chain: SPPADAIPKSKKVKVSHRSHSTEPGLVLTLGQGDVGQLGLGENVMERKKPALVSIPEDVVQAEAGGMHTVCLSKSGQVYSFGCNDEGALGRDTSVEGSEMVPGKVELQEKVVQVSAGDSHTAALTDDGRVFLWGSFRDNNGVIGLLEPMKKSMVPVQVQLDVPVVKVASGNDHLVMLTADGDLYTLGCGEQGQLGRVPELFANRGGRQGLERLLVPKCVMLKSRGSRGHVRFQDAFCGAYFTFAISHEGHVYGFGLSNYHQLGTPGTESCFIPQNLTSFKNSTKSWVGFSGGQHHTVCMDSEGKAYSLGRAEYGRLGLGEGAEEKSIPTLISRLPAVSSVACGASVGYAVTKDGRVFAWGMGTNYQLGTGQDEDAWSPVEMMGKQLENRVVLSVSSGGQHTVLLVKDKEQS
notes: human RCC1 (RCC1α) lacking the entire minor NLS box; source: E. coli BL21(DE3) AI or BL21(DE3), purified
B4: RCC1 (human, wild type, free protein) (natural protein, UniProt P18754 1-421, looked up)
chain: MSPKRIAKRRSPPADAIPKSKKVKVSHRSHSTEPGLVLTLGQGDVGQLGLGENVMERKKPALVSIPEDVVQAEAGGMHTVCLSKSGQVYSFGCNDEGALGRDTSVEGSEMVPGKVELQEKVVQVSAGDSHTAALTDDGRVFLWGSFRDNNGVIGLLEPMKKSMVPVQVQLDVPVVKVASGNDHLVMLTADGDLYTLGCGEQGQLGRVPELFANRGGRQGLERLLVPKCVMLKSRGSRGHVRFQDAFCGAYFTFAISHEGHVYGFGLSNYHQLGTPGTESCFIPQNLTSFKNSTKSWVGFSGGQHHTVCMDSEGKAYSLGRAEYGRLGLGEGAEEKSIPTLISRLPAVSSVACGASVGYAVTKDGRVFAWGMGTNYQLGTGQDEDAWSPVEMMGKQLENRVVLSVSSGGQHTVLLVKDKEQS
notes: human RCC1, predominant isoform RCC1α, synthetic gene; also called free RCC1; WT RCC1; source: E. coli BL21(DE3) AI or BL21(DE3), purified
B5: GST-RCC1 (full-length human RCC1, wild type) (natural protein, UniProt P18754 1-421, looked up)
chain: B4 chain
notes: human RCC1, predominant isoform RCC1α, synthetic gene (GenScript); β-propeller printed as residues 30–421; Used in the syringe for ITC (methods say GST-RCC1); also called full length GST-RCC1; WT GST-RCC1; source: E. coli BL21(DE3) AI or BL21(DE3), pGEX-6P, glutathione resin; not shown: GST, N-terminal, kept
B6: RCC1 (human, cleaved from GST, in the purified importin α3:RCC1 complex) (natural protein, UniProt P18754 1-421, looked up)
chain: B4 chain
notes: human RCC1, predominant isoform RCC1α, synthetic gene; also called RCC1α; human RCC1; source: E. coli BL21-AI, co-expressed with ΔIBB-importin α3, cleaved off glutathione beads with PreScission Protease, SEC; not shown: GST, N-terminal, cleaved
B7: RCC1-S11E (natural protein, human, UniProt P18754 1-421, looked up)
chain: B4 chain with S11E
notes: human RCC1 (RCC1α) with the phospho-mimetic S11E; also called phospho-mimetic RCC1-S11E; source: E. coli BL21(DE3) AI or BL21(DE3), purified
B8: RCC1-R9A/K21A (natural protein, human, UniProt P18754 1-421, looked up)
chain: B4 chain with R9A, K21A
notes: human RCC1 (RCC1α) with R9A and K21A; also called P2/P2′ double mutant; source: E. coli BL21(DE3) AI or BL21(DE3), purified
B9: RCC1-R9A (natural protein, human, UniProt P18754 1-421, looked up)
chain: B4 chain with R9A
notes: human RCC1 (RCC1α) with R9A; also called P2′ mutant; source: E. coli BL21(DE3) AI or BL21(DE3), purified
B10: RCC1-K21A (natural protein, human, UniProt P18754 1-421, looked up)
chain: B4 chain with K21A
notes: human RCC1 (RCC1α) with K21A; also called P2 mutant; source: E. coli BL21(DE3) AI or BL21(DE3), purified
B11: Δ5-RCC1 (domain or fragment, human, UniProt P18754 6-421, looked up)
chain: IAKRRSPPADAIPKSKKVKVSHRSHSTEPGLVLTLGQGDVGQLGLGENVMERKKPALVSIPEDVVQAEAGGMHTVCLSKSGQVYSFGCNDEGALGRDTSVEGSEMVPGKVELQEKVVQVSAGDSHTAALTDDGRVFLWGSFRDNNGVIGLLEPMKKSMVPVQVQLDVPVVKVASGNDHLVMLTADGDLYTLGCGEQGQLGRVPELFANRGGRQGLERLLVPKCVMLKSRGSRGHVRFQDAFCGAYFTFAISHEGHVYGFGLSNYHQLGTPGTESCFIPQNLTSFKNSTKSWVGFSGGQHHTVCMDSEGKAYSLGRAEYGRLGLGEGAEEKSIPTLISRLPAVSSVACGASVGYAVTKDGRVFAWGMGTNYQLGTGQDEDAWSPVEMMGKQLENRVVLSVSSGGQHTVLLVKDKEQS
notes: human RCC1 (RCC1α) with the first five residues deleted; source: E. coli BL21(DE3) AI or BL21(DE3), purified

Common to all, as to conditions: both partners purified
For assay [1], the target named is B5. The assay is described as follows: ITC; nano-ITC, 20 °C; GST-RCC1 (300 µM) injected in 2.0 µl increments into 195 µl of ΔIBB-importin α3 or α1 (100 µM); 20 mM Tris-HCl pH 8.0, 150 mM NaCl, 5 mM BME, 0.1 mM PMSF; single set of binding sites model; triplicate. On the technique in general: Isothermal titration calorimetry measures the heat released or taken up as one component is titrated into another.

The target in assay [2] is T1, ΔIBB-Kap60 (co-expressed with yeast GST-RCC1) (Saccharomyces cerevisiae, UniProt Q02821 66-542).
T1 construct: yeast importin α Kap60 lacking the N-terminal IBB domain; the methods say ΔIBB-Kap60; source: E. coli BL21-AI, co-expressed with yeast GST-RCC1, purified as complex (glutathione beads, PreScission, SEC)
T1 sequence (looked up): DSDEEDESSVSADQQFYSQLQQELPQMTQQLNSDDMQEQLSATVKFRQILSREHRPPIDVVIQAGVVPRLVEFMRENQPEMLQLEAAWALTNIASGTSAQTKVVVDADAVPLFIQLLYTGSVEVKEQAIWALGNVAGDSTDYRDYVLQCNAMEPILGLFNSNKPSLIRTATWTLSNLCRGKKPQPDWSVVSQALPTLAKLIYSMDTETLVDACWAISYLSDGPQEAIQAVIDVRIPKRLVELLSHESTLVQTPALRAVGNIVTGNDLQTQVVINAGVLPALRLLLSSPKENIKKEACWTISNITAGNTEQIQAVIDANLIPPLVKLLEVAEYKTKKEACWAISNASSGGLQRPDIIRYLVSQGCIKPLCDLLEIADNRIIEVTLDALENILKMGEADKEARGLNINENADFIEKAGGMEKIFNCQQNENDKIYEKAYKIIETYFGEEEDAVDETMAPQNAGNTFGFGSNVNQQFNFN
The assay is described as follows: SEC-SAXS; Kap60:yRCC1 complex at 5.0 mg ml^-1 on Superose 12 10/300 GL; 20 mM Tris-HCl pH 7.5, 150 mM NaCl, 5% glycerol, 3 mM BME; frames 710–750.

A further assay deals with T2, GST-ΔIBB-importin α3 (human, UniProt O00629 59-521).
T2 construct: human importin α3 lacking the N-terminal IBB domain; also called GST-tagged importin α3 (lacking the IBB); source: E. coli BL21(DE3) AI or BL21(DE3), pGEX-6P, purified (glutathione resin); not shown: GST, N-terminal, kept
T2 sequence (looked up): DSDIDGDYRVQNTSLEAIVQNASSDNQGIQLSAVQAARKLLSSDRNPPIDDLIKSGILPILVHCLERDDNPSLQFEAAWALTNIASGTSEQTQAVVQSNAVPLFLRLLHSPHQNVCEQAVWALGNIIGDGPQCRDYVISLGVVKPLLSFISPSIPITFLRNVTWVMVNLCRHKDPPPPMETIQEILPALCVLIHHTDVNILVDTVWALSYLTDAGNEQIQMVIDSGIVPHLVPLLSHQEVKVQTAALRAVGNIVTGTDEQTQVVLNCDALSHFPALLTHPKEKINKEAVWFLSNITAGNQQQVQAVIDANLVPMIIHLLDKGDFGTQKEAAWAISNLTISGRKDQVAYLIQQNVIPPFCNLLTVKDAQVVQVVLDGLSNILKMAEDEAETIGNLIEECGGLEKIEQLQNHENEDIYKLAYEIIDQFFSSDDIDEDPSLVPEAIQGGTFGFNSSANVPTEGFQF
Kind of assay: pull-down; purified GST-ΔIBB-importin α3 or GST-ΔIBB-Kap60 (1 µM) pre-incubated with RCC1/yRCC1 (0.75 µM) ~60 min at 4 °C, then bound to glutathione beads, washed three times, eluted with 25 mM reduced glutathione; SDS-PAGE, Coomassie, quantified in triplicate, WT = 100%.

Assay [3] addresses B1. Kind of assay: ITC; nano-ITC, 20 °C; GST-RCC1 (300 µM) injected in 2.0 µl increments into 195 µl of ΔIBB-importin α3 or α1 (100 µM); 20 mM Tris-HCl pH 8.0, 150 mM NaCl, 5 mM BME, 0.1 mM PMSF; single set of binding sites model; triplicate.
The target of assay [4] is untagged ΔIBB-importin α3 (co-expressed with GST-RCC1) (human, UniProt O00629 1-521, Limits not given; taken from the ΔIBB-importin α3 entity of PDB 4UAE, which fits the expected complex MW of ~91.2 kDa. The 5TBK entity lists the full-length sequence although the IBB was deleted.). Kind of assay: SAXS; purified importin α3:RCC1 complex in GF buffer, 3.5–7.5 mg ml^-1, physiological salt.

The Kd is a measure of binding affinity in units of concentration. Regarding B1, the Kd in assay [1] came to 620 ± 100 nM. The stoichiometry N is the number of molecules, sites or subunits per partner or assembly. As to B2, the “stoichiometry N” value in assay [2] was determined as 1. Take B3: the “reduction of binding relative to WT RCC1” value with GST-ΔIBB-importin α3 was about 60%.

As for B4, the “stoichiometry N” value in the assay with GST-ΔIBB-importin α3 came to 1. For the molecule B5, in assay [3], the “stoichiometry N” value was under 1.

In the case of B6, the “stoichiometry N” value in assay [4] was 1. Consider B7, for which the “reduction of binding relative to WT RCC1” value with GST-ΔIBB-importin α3 was about 10%. Turning to B8, in the assay with GST-ΔIBB-importin α3, the “reduction of binding relative to WT RCC1” value is about 85%. As for B9, the “reduction of binding relative to WT RCC1” value with GST-ΔIBB-importin α3 is 25%. Regarding B10, in the assay with GST-ΔIBB-importin α3, the “reduction of binding relative to WT RCC1” value came to 25%. The same measure, in the same setting: the same measure for B11: about 10%.
